# In publication PMC2999833:
# What was measured:
# [1] = target: Dok1 pY362 peptide (human); experiment: SPR
# [2] = target: Dok2 pY345 peptide (human); experiment: SPR
substance,measurement,setting,value
Full-length recombinant His tagged human Nck1 (from UniProt P16333 1-377) (natural protein),Kd,[1],600 nM
same,Kd,[2],3500 nM
